Assay results: patent US20260234255A1 (Genmab, published 2026)
Numbering of substitutions follows the chain as printed.

What was measured:
human CD30 [1] = target: T1, human CD30 (human, UniProt P28908 19-595); assay: flow cytometry, DEL cells
T1 construct: The same molecule is used for CD30 on HL/ALCL/NHL cell lines; also called huCD30; TNFRSF8
T1 sequence: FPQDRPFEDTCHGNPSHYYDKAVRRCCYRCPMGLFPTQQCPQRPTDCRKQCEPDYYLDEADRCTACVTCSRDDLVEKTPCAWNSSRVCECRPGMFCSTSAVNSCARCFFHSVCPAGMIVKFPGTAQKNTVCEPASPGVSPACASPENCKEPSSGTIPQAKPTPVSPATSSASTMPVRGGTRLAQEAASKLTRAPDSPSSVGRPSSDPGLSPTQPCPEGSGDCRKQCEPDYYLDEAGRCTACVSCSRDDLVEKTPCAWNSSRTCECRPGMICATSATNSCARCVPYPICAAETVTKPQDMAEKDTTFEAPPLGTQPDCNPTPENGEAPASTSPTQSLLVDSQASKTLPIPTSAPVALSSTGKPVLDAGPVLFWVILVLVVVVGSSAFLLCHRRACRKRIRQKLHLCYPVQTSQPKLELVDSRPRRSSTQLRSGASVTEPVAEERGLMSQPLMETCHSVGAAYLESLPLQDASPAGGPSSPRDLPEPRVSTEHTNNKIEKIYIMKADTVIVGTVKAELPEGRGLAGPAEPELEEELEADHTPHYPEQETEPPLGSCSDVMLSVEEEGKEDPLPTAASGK

human CD30 [2] = target: T1, human CD30; assay: flow cytometry, KI-JK cells
human CD30 [3] = target: T1, human CD30; assay: flow cytometry, HDLM-2 cells
Procedure: (§1) Binding of CD3×CD30 bispecific antibodies to two CD30-expressing human tumor cell lines SU-DHL-1 (ALCL; ATCC, cat. no. ACC 356) and HDLM-2 (HL; ATCC, cat. no. CRL-2965) was analyzed […] by flow cytometry.
(§2) Cells (3×10⁴ cells/well) were incubated in polystyrene 96-well round-bottom plates (Greiner bio-one, cat. no. 650180) with serial dilutions of antibodies (range 0.0046 to 10 μg/mL in 3-fold dilution steps) in 50 μL staining buffer at 4° C. for 30 min. After washing twice in staining buffer, cells were incubated with 50 μL secondary antibody at 4° C. for 30 min. […] Next, cells were washed twice in staining buffer, resuspended in 100 μL staining buffer supplemented with TO-PRO-3 iodide (Thermo Fisher Scientific; cat. no. T3605; 1:8000 dilution) and analyzed on a FACSCelesta flow cytometer (BD Biosciences, USA). Live cells were gated based on FSC/SSC and absence of TOPRO-3 staining. Binding curves were analyzed by non-linear regression of log-transformed data (sigmoidal dose-response with variable slope, four parameters) using GraphPad Prism V7.02 software (GraphPad Software, San Diego, CA, USA).

human CD30 [4] = target: T1, human CD30; assay: flow cytometry, HDLM-2 cells
human CD30 [5] = target: T1, human CD30; assay: flow cytometry, SU-DHL-1 cells
Procedure: as §1, §2

[6] = target: T2, cynomolgus monkey (Macaca fascicularis) CD30 (cynomolgus monkey, UniProt P28908 19-595 (human entry)); assay: flow cytometry, Expi293F cells transfected with cynomolgus monkey CD30 (mfCD30)
T2 construct: also called mfCD30
T2 chain: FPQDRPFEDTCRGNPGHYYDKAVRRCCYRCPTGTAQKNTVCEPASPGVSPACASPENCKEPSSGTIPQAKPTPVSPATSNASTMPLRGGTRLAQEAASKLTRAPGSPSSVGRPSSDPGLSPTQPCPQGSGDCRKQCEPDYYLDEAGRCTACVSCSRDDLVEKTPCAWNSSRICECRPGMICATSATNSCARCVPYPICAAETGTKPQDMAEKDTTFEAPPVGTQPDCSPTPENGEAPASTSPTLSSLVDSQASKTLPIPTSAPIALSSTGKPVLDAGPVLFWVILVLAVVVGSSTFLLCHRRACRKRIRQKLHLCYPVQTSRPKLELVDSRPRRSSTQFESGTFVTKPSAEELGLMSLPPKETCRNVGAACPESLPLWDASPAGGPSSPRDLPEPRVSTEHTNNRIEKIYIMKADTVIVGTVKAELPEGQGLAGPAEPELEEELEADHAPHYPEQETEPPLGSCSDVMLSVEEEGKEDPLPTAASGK
Procedure: Cells (3×10⁴ cells/well) were incubated in polystyrene 96-well round-bottom plates (Greiner bio-one, cat. no. 650180) with serial dilutions of antibodies (ranging from 0.005 to 10 μg/mL in 3-fold dilution steps) in 100 μL staining buffer at 4° C. for 30 min. Experiments were performed in technical duplicate. After washing twice in staining buffer, cells were incubated in 50 μL secondary antibody at 4° C. for 30 min. As a secondary antibody, R-PE-conjugated goat-anti-human IgG (Jackson ImmunoResearch, UK; cat. no. 109⁻¹¹⁶-098) diluted 1:400 in staining buffer was used. Cells were washed twice in staining buffer, resuspended in 30 μL staining buffer containing 0.4% EDTA and analyzed on an iQue Screener (Intellicyt Corporation, USA). Binding curves were analyzed using non-linear regression (sigmoidal dose-response with variable slope) using GraphPad Prism V9.0.0 software (GraphPad Software, San Diego, CA, USA).

cynomolgus monkey CD3 = target: T3, cynomolgus monkey CD3 (cynomolgus monkey, UniProt Q95LI5 22-198); assay: flow cytometry, cynomolgus monkey T cells (PBMCs)
T3 construct: CD3 endogenously expressed on T cells within cynomolgus monkey PBMCs
T3 sequence (Q95LI5 22-198): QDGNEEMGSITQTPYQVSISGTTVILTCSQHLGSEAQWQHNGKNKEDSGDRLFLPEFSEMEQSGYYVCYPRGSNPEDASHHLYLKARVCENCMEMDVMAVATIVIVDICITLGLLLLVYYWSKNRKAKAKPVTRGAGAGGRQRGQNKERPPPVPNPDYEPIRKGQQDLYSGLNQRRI
Procedure: Cynomolgus monkey PBMCs (Tebu-Bio, The Netherlands; cat. no. PBMCMFA-10) or purified human T cells were plated in polystyrene 96-well round-bottom plates. T cells were derived from human donor buffy coats (Sanquin, Amsterdam, The Netherlands) and isolated using the RosetteSep human T cell enrichment cocktail (Stemcell Technologies, France, cat. no. 15061) according to manufacturer's instructions. […] After washing twice in staining buffer, cells were incubated in 50 μL secondary R-PE-conjugated goat-anti-human IgG antibody at 4° C. for 30 min (1:400 dilution). After washing twice in staining buffer, T cells were stained for T-cell markers CD3 (1:100; Miltenyi biotec, clone 10D12, conjugated to APC), CD4 (1:50; eBioscience, clone OKT4, conjugated to APC-Cy7), CD8 (1:100; Biolegend, clone RPA-T8, conjugated to AF700) and T-cell activation markers CD69 (1:50; BD Biosciences, clone AB2439, conjugated to FITC), CD25 (1:50; eBioscience, clone BC96, conjugated to PE-Cy7) and CD279/PD1 (1:50; BD Biosciences, clone AEH12.2H7, conjugated to BV605). Single stained samples with Ultracomp beads (5 μL; Invitrogen, cat. no. 01-2222-42) were used for compensation adjustments of the flow cytometer. After 30 min of incubation at 4° C., cells were washed twice with staining buffer, resuspended in 100 μL staining buffer and analyzed using a FACS Fortessa (BD Biosciences). Data were processed using FlowJo (BD Biosciences).

human CD30 [7] = target: T1, human CD30; assay: flow cytometry, HH cells
Procedure: as §2

human CD30 [8] = target: T1, human CD30; assay: flow cytometry, L-82 cells
human CD30 [9] = target: T1, human CD30; assay: flow cytometry, L-540 cells
human CD30 [10] = target: T1, human CD30; assay: flow cytometry, KM-H2 cells
human CD30 [11] = target: T1, human CD30; assay: flow cytometry, DL-40 cells
human CD30 [12] = target: T1, human CD30; assay: flow cytometry, L-1236 cells
human CD30 [13] = target: T1, human CD30; assay: flow cytometry, SUP-M2 cells
human CD30 [14] = target: T1, human CD30; assay: flow cytometry, SR-786 cells
human CD30 [15] = target: T1, human CD30; assay: flow cytometry, NCEB-1 cells

B1: bsG1-b12-FEALxCD30-MDX060-FEAR (bispecific antibody, human IgG1, kappa)
heavy 1: QVQLVQSGAEVKKPGASVKVSCQASGYRFSNFVIHWVRQAPGQRFEWMGWINPYNGNKEFSAKFQDRVTFTADTSANTAYMELRSLRSADTAVYYCARVGPYSWDDSPQDNYYMDVWGKGTTVIVSSASTKGPSVFPLAPSSKSTSGGTAALGCLVKDYFPEPVTVSWNSGALTSGVHTFPAVLQSSGLYSLSSVVTVPSSSLGTQTYICNVNHKPSNTKVDKRVEPKSCDKTHTCPPCPAPEFEGGPSVFLFPPKPKDTLMISRTPEVTCVVVAVSHEDPEVKFNWYVDGVEVHNAKTKPREEQYNSTYRVVSVLTVLHQDWLNGKEYKCKVSNKALPAPIEKTISKAKGQPREPQVYTLPPSREEMTKNQVSLTCLVKGFYPSDIAVEWESNGQPENNYKTTPPVLDSDGSFLLYSKLTVDKSRWQQGNVFSCSVMHEALHNHYTQKSLSLSPG
light 1: EIVLTQSPGTLSLSPGERATFSCRSSHSIRSRRVAWYQHKPGQAPRLVIHGVSNRASGISDRFSGSGSGTDFTLTITRVEPEDFALYYCQVYGASSYTFGQGTKLERKRTVAAPSVFIFPPSDEQLKSGTASVVCLLNNFYPREAKVQWKVDNALQSGNSQESVTEQDSKDSTYSLSSTLTLSKADYEKHKVYACEVTHQGLSSPVTKSFNRGEC
heavy 2: QVQLQQWGAGLLKPSETLSLTCAVYGGSFSAYYWSWIRQPPGKGLEWIGDINHGGGTNYNPSLKSRVTISVDTSKNQFSLKLNSVTAADTAVYYCASLTAYWGQGSLVTVSSASTKGPSVFPLAPSSKSTSGGTAALGCLVKDYFPEPVTVSWNSGALTSGVHTFPAVLQSSGLYSLSSVVTVPSSSLGTQTYICNVNHKPSNTKVDKRVEPKSCDKTHTCPPCPAPEFEGGPSVFLFPPKPKDTLMISRTPEVTCVVVAVSHEDPEVKFNWYVDGVEVHNAKTKPREEQYNSTYRVVSVLTVLHQDWLNGKEYKCKVSNKALPAPIEKTISKAKGQPREPQVYTLPPSREEMTKNQVSLTCLVKGFYPSDIAVEWESNGQPENNYKTTPPVLDSDGSFFLYSRLTVDKSRWQQGNVFSCSVMHEALHNHYTQKSLSLSPG
light 2: DIQMTQSPTSLSASVGDRVTITCRASQGISSWLTWYQQKPEKAPKSLIYAASSLQSGVPSRFSGSGSGTDFTLTISSLQPEDFATYYCQQYDSYPITFGQGTRLEIKRTVAAPSVFIFPPSDEQLKSGTASVVCLLNNFYPREAKVQWKVDNALQSGNSQESVTEQDSKDSTYSLSSTLTLSKADYEKHKVYACEVTHQGLSSPVTKSFNRGEC
notes: Monovalent CD30 control
EC50 (read off the curve) (human CD30 [1]): ~0.2 µg/mL | EC50 (read off the curve) (human CD30 [2]): ~0.2 µg/mL | EC50 (read off the curve) (human CD30 [3]): ~0.3 µg/mL | EC50 (read off the curve) (human CD30 [4]): ~0.1 µg/mL | EC50 (read off the curve) (human CD30 [5]): ~0.4 µg/mL | binding result [6]: binds

B2: bsG1-huCD3-FEALxb12-FEAR (bispecific antibody)
heavy 1: not shown
light 1: not shown
heavy 2: B1 heavy 1 with L415F, K419R
light 2: B1 light 1
notes: Monovalent CD3 control; The b12 arm is HIV-1 gp120 specific
EC50 (read off the curve) (cynomolgus monkey CD3): ~0.5 µg/mL

B3: IgG1-CD30-MDX060-FERR (antibody)
heavy: B1 heavy 2 with G231R, A260D
light: B1 light 2
notes: Monospecific, bivalent parental antibody; also called IgG1-huCD30-MDX060-FERR
EC50 (read off the curve) (human CD30 [1]): ~0.1 µg/mL | EC50 (read off the curve) (human CD30 [7]): ~0.1 µg/mL | EC50 (read off the curve) (human CD30 [8]): ~0.07 µg/mL | EC50 (read off the curve) (human CD30 [2]): ~0.06 µg/mL | EC50 (read off the curve) (human CD30 [9]): ~0.3 µg/mL | EC50 (read off the curve) (human CD30 [10]): ~0.04 µg/mL | EC50 (read off the curve) (human CD30 [11]): ~0.07 µg/mL | EC50 (read off the curve) (human CD30 [4]): ~0.06 µg/mL | EC50 (read off the curve) (human CD30 [12]): ~0.04 µg/mL | EC50 (read off the curve) (human CD30 [13]): ~0.03 µg/mL | EC50 (read off the curve) (human CD30 [14]): ~0.1 µg/mL | EC50 (read off the curve) (human CD30 [15]): ~0.04 µg/mL
